Results taken from publication PMC2743556.

Target: D-galactose receptor (human (endogenous in SHIN3))
Test: flow cytometry on cells

mean value of fluorescence (FACS flow cytometry): 10.9
Substance: TAMRA conjugated avidin (from UniProt P02701 25-152) (ligand)
